This is an account of results in US20210380703A1 (RIGEL PHARMACEUTICALS, published 2021).

Substitutions are numbered along the chain they refer to.

First the molecules themselves.
B1: 367_A01 (antibody, V domains shown)
VH: EVQLLESGGGLVQPGGSLRLSCAASGFTFSSYSMNWVRQAPGKGLEWVASINYNGGYTGYADSVKGRFTISRDNSKNTLYLQMNSLRAEDTAVYYCARSATWHDTHLDYWGQGTLVTVSS
VL: DIQMTQSPSSLSASVGDRVTITCRASQSILTYLNWYQQKPGKAPKLLIYAATSRASGVPSRFSGSGSGTDFTLTISSLQPEDFATYYCQQSYDLPLTFGGGTKVEIK
notes: VH/VL only
B2: 367_A09 (antibody, V domains shown)
VH: B1 VH with S30D, S33G, S50G, G59S
VL: B1 VL with T31S, L33V, L47V, A55H, L94T
notes: VH/VL only
B3: 367_C03 (antibody, V domains shown)
VH: B1 VH with S50N, H106A
VL: B1 VL with T31S, L33V, L47V, A51T, D93E, L94N
notes: VH/VL only
B4: 369_A05 (antibody, V domains shown)
VH: B1 VH with S50G
VL: B1 VL with L33V, L47V, D93E, L94S
notes: VH/VL only
B5: 369_B02 (antibody, V domains shown)
VH: B1 VH with S30D, A49S, S50G, T58K, G59S
VL: B1 VL with T31S, L47V, D93N
notes: VH/VL only
B6: 368_G09 (antibody, V domains shown)
VH: B1 VH with S30D, S33G, N35H, S50N, G59S
VL: B1 VL with L30V, T31S, L47V, L94T
notes: VH/VL only
B7: 368_H01 (antibody, V domains shown)
VH: B1 VH with S50G, G55S, T58K, G59S
VL: B1 VL with T31S, A51T, R54L, L94N
notes: VH/VL only
B8: 368_C01 (antibody, V domains shown)
VH: B1 VH with S30D, S33G, S50G, H106A
VL: B1 VL with L30I, L94S
notes: VH/VL only
B9: 368_G05 (antibody, V domains shown)
VH: B1 VH with S30D, S50G, G59S
VL: B1 VL with L33V, R54L, A55H, D93N, L94T
notes: VH/VL only
B10: 368_C06 (antibody, V domains shown)
VH: B1 VH with S30D, S50G, T58K, G59S
VL: not shown
notes: VH/VL only
B11: 368_F12 (antibody, V domains shown)
VH: B1 VH with S30D, S31D, G55S, T58K, G59S
VL: B1 VL with L30V, L47V, R54L
notes: VH/VL only
B12: 367_E02 (antibody, V domains shown)
VH: B1 VH with S30D, S50G
VL: not shown
notes: VH/VL only
B13: 367_F05 (antibody, V domains shown)
VH: B1 VH with S33G, H106A
VL: B1 VL with T31S, L33V, D93S, L94S
notes: VH/VL only
B14: 367_F02 (antibody, V domains shown)
VH: B1 VH with S30D, S50N, G59S
VL: B1 VL with L30I, T31S, L33V, A55H, D93E, L94S
notes: VH/VL only
B15: 368_E11 (antibody, V domains shown)
VH: B1 VH with S30D, S33G, N35H, S50N, G59S
VL: B1 VL with L30I, T31S, L33V, A55H, D93E
notes: VH/VL only
B16: 369_A10 (antibody, V domains shown)
VH: B1 VH with S30D, S50G, G55S
VL: B1 VL with T31S, D93E
notes: VH/VL only
B17: 367_H07 (antibody, V domains shown)
VH: B1 VH with S50N, H106A
VL: B1 VL with T31S, L33V, L47V, A51T, D93E, L94N
notes: VH/VL only
B18: 368_H07 (antibody, V domains shown)
VH: B1 VH with S33G, N35H, G55S, G59S
VL: B1 VL with T31S, D93E, L94N
notes: VH/VL only
B19: 367_G07 (antibody, V domains shown)
VH: B1 VH with S30D, S50N
VL: B1 VL with L33V, L94N
notes: VH/VL only
B20: 368_D10 (antibody, V domains shown)
VH: B1 VH with S30D, S33G, S50G, G55S, G59S, H106A
VL: B1 VL with T31S, L47V, L94S
notes: VH/VL only
B21: 369_B09 (antibody, V domains shown)
VH: B1 VH with S30D, S33G, N35H, G59S
VL: B1 VL with D93E, L94N
notes: VH/VL only
B22: 368_H12 (antibody, V domains shown)
VH: B1 VH with S30D, G55S, T58K
VL: B1 VL with L30V, D93E, L94S
notes: VH/VL only
Further: test concentration or dose not given here.

human ACVR2A, sequence (P27037 20-135 limits assumed): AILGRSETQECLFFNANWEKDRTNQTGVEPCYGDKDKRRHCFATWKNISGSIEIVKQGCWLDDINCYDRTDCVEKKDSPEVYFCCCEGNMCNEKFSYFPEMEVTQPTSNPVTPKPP

The target in the first assay is human ACVR2A (human, UniProt P27037 20-135, limits assumed). Nature of the assay: ELISA. An outline of the steps:
(§1)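 Monoclonal antibodies were first applied to human or mouse ACVR2A, alongside biotinylated goat anti-human kappa light chain (positive control) and human Fc (negative control); binding was then determined by ELISA.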
B1 came in with an optical density of 3.18 OD.

The molecule B2 displayed an optical density of 2.18 OD.

The molecule B3 registered an optical density of 2.3 OD.

As to B4, the optical density came out at 3.29 OD.

B5: the optical density was determined as 3.4 OD.

The molecule B6 showed an optical density of 2.44 OD.

For the molecule B7, the optical density worked out at 3.03 OD.

The molecule B8 showed an optical density of 2.61 OD.

B9 yielded an optical density of 2.17 OD.

B10: the optical density worked out at 0.738 OD.

B11: the optical density amounted to 1.69 OD.

Regarding B12, the optical density came out at 1.87 OD.

The molecule B13 yielded an optical density of 2.27 OD.

Regarding B14, the optical density came out at 2.38 OD.

Molecule B15 yielded an optical density of 2.57 OD.

As to B16, the optical density was 3.38 OD.

Molecule B17 came in with an optical density of 2.72 OD.

Molecule B18 came in with an optical density of 2.71 OD.

B19 had an optical density of 3.02 OD.

On to B20, for which the optical density stood at 2.25 OD.

B21 displayed an optical density of 1.62 OD.

As to B22, the optical density was 2.64 OD.

In a further assay the target is mouse ACVR2A (mouse, UniProt P27038 20-135, limits assumed). Nature of the assay: ELISA. An outline of the steps: as §1
mouse ACVR2A, sequence (P27038 20-135 limits assumed): as the sequence (P27037 20-135 limits assumed) above, with K20R, V73I counted along it
Regarding B1, the optical density was 3.28 OD.

B2 displayed an optical density of 2.41 OD.

Take B3: the optical density worked out at 2.81 OD.

Molecule B4 returned an optical density of 3.25 OD.

The molecule B5 displayed an optical density of 3.55 OD.

Consider B6, for which the optical density was found to be 2.81 OD.

In the case of B7, the optical density was 3.14 OD.

In the case of B8, the optical density came out at 2.92 OD.

In turn, B9 showed an optical density of 2.42 OD.

Turning to B10, the optical density turned out to be 1.03 OD.

In turn, B11 gave an optical density of 1.7 OD.

B12 yielded an optical density of 2.03 OD.

As to B13, the optical density is 2.48 OD.

Regarding B14, the optical density worked out at 2.27 OD.

For B15, the optical density came out at 2.92 OD.

B16 displayed an optical density of 3.14 OD.

In turn, B17 showed an optical density of 2.68 OD.

Molecule B18 registered an optical density of 2.86 OD.

In turn, B19 displayed an optical density of 3.2 OD.

B20 registered an optical density of 2.45 OD.

Regarding B21, the optical density was 1.58 OD.

In the case of B22, the optical density worked out at 2.69 OD.

The target of a further assay is T1, biotinylated goat anti-human kappa light chain.
T1 construct: Positive control of the ELISA
The assay can be described thus: ELISA; positive control. In short, it runs like this: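 ELISA measured binding of ACVR2A-specific monoclonal antibodies to human and mouse ACVR2A. Biotinylated goat anti-human kappa light chain served as positive control and human Fc as negative control.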
B1: the optical density is 3.51 OD.

Take B2: the optical density came out at 3.45 OD.

Consider B3, for which the optical density worked out at 3.51 OD.

Regarding B4, the optical density came to 3.48 OD.

For the molecule B5, the optical density amounted to 3.52 OD.

Regarding B6, the optical density was found to be 3.62 OD.

B7: the optical density was 3.69 OD.

As for B8, the optical density came to 3.71 OD.

The molecule B9 displayed an optical density of 3.35 OD.

The molecule B10 yielded an optical density of 3.52 OD.

Regarding B11, the optical density was found to be 3.52 OD.

Molecule B12 had an optical density of 3.44 OD.

Turning to B13, the optical density amounted to 3.44 OD.

B14: the optical density amounted to 3.52 OD.

With B15, the optical density amounted to 3.73 OD.

As for B16, the optical density worked out at 3.41 OD.

Turning to B17, the optical density worked out at 3.46 OD.

B18 displayed an optical density of 3.55 OD.

As for B19, the optical density was found to be 3.29 OD.

Turning to B20, the optical density worked out at 3.26 OD.

Molecule B21 returned an optical density of 2.22 OD.

In the case of B22, the optical density is 3.57 OD.
